B1: DVL3 (parent)
chain: FCADNPSELPPPMERTGGIGDSRP
B2: PDZK1 (parent)
chain: RETASLKLLPHQPRIVEMKKGSNG

Variants of: B1
Assay: protein stability index of a GFP-peptide fusion (GPS, HEK-293T) (PSI 1-6); higher = more stable
Conditions: c terminus: a fixed tail appended
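Also: lentivirally expressed fusions sorted by FACS into six bins by GFP to DsRed ratio, PSI derived from sequencing read proportions per bin multiplied by bin number.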

Point of comparison: FCADNPSELPPPMERTGIIGDSRP, protein stability index 4.05. Against it:
- FCADNPSELPPPMEATGGIGDSRP — higher, 5.48
- FCADNPSELPPPMEQTGGIGDSRP — higher, 4.37
- FCADNPSELPPDMERTGGIGDSRP — higher, 5.2
- FCADNPSELPPRMERTGGIGDSRP — lower, 3.93
- FCADNPSELPPFMERTGGIGDSRP — lower, 3.41
- FCADNPSELPPQMERTGGIGDSRP — higher, 4.75
- FCADNPSELPPAMERTGGIGDSRP — higher, 5.55
- FCADNPSELPPCMERTGGIGDSRP — higher, 4.07
- FCADNPSELPPWMERTGGIGDSRP — lower, 1.75
- FCADNPSELPPHMERTGGIGDSRP — higher, 4.61
- FCADNPSELPPGMERTGGIGDSRP — higher, 4.39
- FCADNPSELPPPMERRGGIGDSRP — higher, 4.5
- FCADNPSELPPPMERHGGIGDSRP — higher, 4.33
- FCADNPSELPPPMERKGGIGDSRP — higher, 4.29
- FCADNPSELPPPMERAGGIGDSRP — higher, 4.6
- FCADNPSELPPPMERNGGIGDSRP — higher, 4.7
- FCADNPSELPPPMERLGGIGDSRP — lower, 3.8
- FCADNPGELPPPMERTGGIGDSRP — lower, 4.01
- FCADNPLELPPPMERTGGIGDSRP — higher, 4.57
- FCADNPVELPPPMERTGGIGDSRP — higher, 4.14
- FCADNPRELPPPMERTGGIGDSRP — lower, 3.58
- FCADNPCELPPPMERTGGIGDSRP — lower, 3.85
- FCADNPKELPPPMERTGGIGDSRP — higher, 4.98
- FCNDNPSELPPPMERTGGIGDSRP — higher, 4.79
- FCQDNPSELPPPMERTGGIGDSRP — lower, 3.45
- FCDDNPSELPPPMERTGGIGDSRP — higher, 5.11
- FCHDNPSELPPPMERTGGIGDSRP — higher, 4.37
- FCVDNPSELPPPMERTGGIGDSRP — higher, 4.78
- FCKDNPSELPPPMERTGGIGDSRP — higher, 4.34
- FCSDNPSELPPPMERTGGIGDSRP — higher, 4.81
- FCADNPSELPPPMERTGCIGDSRP — higher, 4.57
- FCADNPSELPPPMERTGPIGDSRP — lower, 4.04
- FCADNPSELPPPMERTGAIGDSRP — higher, 4.49
- FCADNPSELPPPMERTGKIGDSRP — higher, 4.88
- FCADNPSELPPPMERTGMIGDSRP — higher, 4.17
- FCADNPSELPPPMERTGLIGDSRP — higher, 4.34
- FCADNPSELPPPMERTGSIGDSRP — higher, 4.64
- FCADNPSELPPPMERTGWIGDSRP — lower, 3.41
- FCADNPSELPPPMERTGFIGDSRP — lower, 4.03
- FCADNPSELPPPMERTGVIGDSRP — lower, 4
- FCADNPSELPPPMERTGGILDSRP — lower, 3.76
- FCADNPSELPPPMERTGGIPDSRP — higher, 5.08
- FCADNPSELPPPMERTGGICDSRP — higher, 4.12
- FCADNPSELPPPMERTGGIADSRP — higher, 4.68
- FCADNPSELPPPMERTGGISDSRP — higher, 4.4
- FCADNPSELPPPMTRTGGIGDSRP — higher, 4.1
- FCADNPSELPPPMCRTGGIGDSRP — lower, 3.68
- FCADNPSELPPPMIRTGGIGDSRP — lower, 3.98
- FCADNPSEIPPPMERTGGIGDSRP — higher, 4.53
- FCADNPSEMPPPMERTGGIGDSRP — higher, 4.34
- FCADNPSEFPPPMERTGGIGDSRP — higher, 4.44
- FCADNPSERPPPMERTGGIGDSRP — higher, 4.32
- FCADNPSELPPPMERTGGEGDSRP — higher, 5.77
- FCADNPSELPPPMERTGGRGDSRP — higher, 4.74
- FCADNPSELPPPMERTGGMGDSRP — higher, 4.8
- FCADNPSELPPPMERTGGTGDSRP — higher, 4.31
- FCADFPSELPPPMERTGGIGDSRP — lower, 2.65
- FCADMPSELPPPMERTGGIGDSRP — higher, 4.57
- FCADIPSELPPPMERTGGIGDSRP — higher, 4.21
- FCADHPSELPPPMERTGGIGDSRP — lower, 3.81
- FCADTPSELPPPMERTGGIGDSRP — higher, 4.42
- FCADNPSELPPPMERTGGIGDSRN — higher, 4.6
- FCADNPSELPPPMERTGGIGDSRD — higher, 4.86
- FCADNPSELPPPMERTGGIGDSRA — lower, 3.79
- FCADNPSELPPPMERTGGIGDSRC — higher, 4.39
- FCADNPSELPPPMERTGGIGDSRR — higher, 5.16
- FCADNPSELPPPMERTGGIGDSRE — higher, 5.45
- FCADNPSELPPPMERTGGIGDSRQ — higher, 4.58
- FCADNPSELPPPMERTGGIGDSRL — lower, 3.96
- FCADNPSELPPPMERTGGIGDSRH — higher, 4.66
- FCADNPSMLPPPMERTGGIGDSRP — lower, 3.49
- FCADNPSDLPPPMERTGGIGDSRP — higher, 4.39
- FCADNPSWLPPPMERTGGIGDSRP — lower, 2.03
- FCADNPSILPPPMERTGGIGDSRP — lower, 3.88
- FCADNPSGLPPPMERTGGIGDSRP — higher, 4.37
- FCADNPSNLPPPMERTGGIGDSRP — higher, 4.26
- FCADNPSCLPPPMERTGGIGDSRP — higher, 4.06

Variants of: B2
Assay: as above
Conditions: c terminus: a fixed tail appended

Point of comparison: HETASLKLLPHQPRIVEMKKGSNG, protein stability index 3.14. Against it:
- VETASLKLLPHQPRIVEMKKGSNG — the same, 3.14
- PETASLKLLPHQPRIVEMKKGSNG — higher, 3.24
- FETASLKLLPHQPRIVEMKKGSNG — lower, 2.99
- LETASLKLLPHQPRIVEMKKGSNG — higher, 3.65
- DETASLKLLPHQPRIVEMKKGSNG — higher, 3.19
- SETASLKLLPHQPRIVEMKKGSNG — higher, 3.41
- AETASLKLLPHQPRIVEMKKGSNG — higher, 3.58
- QETASLKLLPHQPRIVEMKKGSNG — higher, 3.4
- GETASLKLLPHQPRIVEMKKGSNG — lower, 2.8
- TETASLKLLPHQPRIVEMKKGSNG — lower, 2.98
- METASLKLLPHQPRIVEMKKGSNG — lower, 2.38
- CETASLKLLPHQPRIVEMKKGSNG — higher, 3.34
- NETASLKLLPHQPRIVEMKKGSNG — higher, 3.8
- KETASLKLLPHQPRIVEMKKGSNG — higher, 3.67
- EETASLKLLPHQPRIVEMKKGSNG — higher, 3.36
